One substance from paper doi:10.1101/2021.09.13.460076 can be followed below.

This assay has as its target ADDomer-SpyTag (ADD-ST) particle (human adenovirus type 3). Put plainly: covalent adduct on SDS-PAGE.

Substance SpyCatcher (SC) (designed binder) registered a stoichiometry N (copies per particle) of 60.
